Results from article PMC8322138, “BRCA2 binding through a cryptic repeated motif to HSF2BP oligomers does not impact meiotic recombination” (Nature Communications, 2021).

Tests used:
[1] = molecular target: mouse HSF2BP-GFP (homozygous Hsf2bp-GFP knock-in allele) (mouse (endogenous in mES cells)) (UniProt Q9D4G2); test: co-IP; anti-GFP nanobody beads on lysates of Hsf2bp^GFP/GFP mES cells with Brca2 wt, ∆12 or ∆12-14 alleles; BRCA2 blotted, fluorescent secondary antibodies; NETT buffer
[2] = molecular target: the molecule itself; test: SEC-MALS; free ARM; Superdex 200 10/300 GL; 25 mM Tris-HCl pH 7.5, 250 mM NaCl, 5 mM beta-mercaptoethanol; 0.8-1 mg/ml in 100 ul
[3] = molecular target: the molecule itself; test: SEC-MALS + other: SEC-SAXS; ARM with F15X; SEC-MALS on Superdex 200 10/300 GL, SEC-SAXS on Bio SEC-3; 25 mM Tris-HCl pH 7.5, 250 mM NaCl, 5 mM beta-mercaptoethanol; tetramer = two ARM dimers with two F15X
HSF2BP mutant R200T = test: ITC of BRCA2 F0 with HSF2BP R200T; format: binding, human; details: ITC control
Description: (§1) Human full-length HSF2BP WT and R200T were expressed using a pETM11 (6xHis-TEV) expression vector in E. coli BL21 DE3 Rosetta2 cells, and purified as previously reported (Brandsma et al., Cell Rep 2019). The armadillo domain of HSF2BP, from aa 122 to aa 334, which we will further name ARM, was similarly expressed using a pETM11 (6xHis-TEV) expression vector in BL21 DE3 Rosetta2 cells and purified as full-length HSF2BP.
(§2) ITC experiments were performed using a high-precision VP-ITC instrument (GE Healthcare) at 293 K. To characterize the interactions between HSF2BP and BRCA2 fragments (WT, variants), the proteins were dialyzed against 25 mM Tris pH 7.5, 250 mM NaCl, 5 mM β-mercaptoethanol. The HSF2BP (or ARM domain) was in the sample cell at 10–20 μM and was titrated by BRCA2 fragments at 40–100 μM, using 10 μL injections with 210 s intervals between each injection. The first 2 μL injection was ignored in the final data analysis. The integration of the peaks corresponding to each injection. the correction for the baseline and the fit were performed using the Origin 7.0 software provided by the manufacturer, to obtain the stoichiometry (N), dissociation constant (Kd), and enthalpy of complex formation (ΔH) for each interaction. Two replicates were performed for each experiment.

HSF2BP FL = molecular target: T1, HSF2BP FL (Homo sapiens, UniProt O75031); test: ITC of BRCA2 fragments with full-length HSF2BP; format: binding
T1 construct: Human full-length HSF2BP WT and R200T were expressed; 6xHis-TEV (N, cleaved yes); made in house; host or cells: E. coli BL21 DE3 Rosetta2
T1 sequence (O75031 1-334): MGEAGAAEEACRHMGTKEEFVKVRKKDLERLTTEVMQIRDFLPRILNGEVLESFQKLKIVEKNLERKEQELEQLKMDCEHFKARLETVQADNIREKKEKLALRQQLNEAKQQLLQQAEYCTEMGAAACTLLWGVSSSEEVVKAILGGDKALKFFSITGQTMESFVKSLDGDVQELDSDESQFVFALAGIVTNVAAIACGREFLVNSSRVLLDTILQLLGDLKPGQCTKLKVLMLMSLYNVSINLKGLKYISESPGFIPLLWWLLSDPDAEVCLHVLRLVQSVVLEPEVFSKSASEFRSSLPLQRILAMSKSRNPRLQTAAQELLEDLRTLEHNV
Text: as §1
(§3) Human BRCA2 fragment F0 was expressed using a pET-22b expression vector as a fusion protein comprising BRCA2 from aa 2213 to aa 2342 (including mutation C2332T to avoid oxidation problems), a TEV site, a GB1 and 6xHis tag, in E. coli BL21 DE3 Star cells. The BRCA2 gene was optimized for expression in bacteria and synthesized by Genscript. In addition, smaller BRCA2 fragments were produced using the same strategy: FNMR and F15X corresponding to aa 2252 to aa 2342 and aa 2291 to aa 2343, respectively. The smallest fragment F15X∆12, from aa 2312 to aa 2342, was synthesized by Genecust.
as §2

ARM domain of HSF2BP [4] = molecular target: T2, ARM domain of HSF2BP (Homo sapiens, UniProt O75031); test: ITC of BRCA2 fragments with HSF2BP armadillo domain; format: binding; details: for ΔG / −TΔS / ΔH (±error): 293 K
T2 construct: The armadillo domain of HSF2BP, from aa 122 to aa 334; 6xHis-TEV (N, cleaved yes); made in house; host or cells: E. coli BL21 DE3 Rosetta2
T2 sequence (O75031 122-334): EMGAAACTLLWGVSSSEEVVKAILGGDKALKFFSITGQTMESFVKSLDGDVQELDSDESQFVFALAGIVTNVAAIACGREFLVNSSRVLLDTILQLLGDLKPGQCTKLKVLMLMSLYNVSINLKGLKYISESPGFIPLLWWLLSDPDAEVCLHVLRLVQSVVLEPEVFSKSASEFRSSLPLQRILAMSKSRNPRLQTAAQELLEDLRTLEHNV
Text: as §1, §3, §2

[5] = NMR chemical shift secondary structure analysis of F0; format: physicochemical, human; details: 50 mM Hepes pH 7.0, 50 mM NaCl, 283 K, 700 MHz
Description: (§4) For NMR analysis, ^15N-labeled or ^15N- and ^13C-labeled BRCA2 fragments were produced in E. coli BL21 DE3 Star cells grown in M9 medium containing either 0.5 g/l ^15NH4Cl or 0.5 g/l ^15NH4Cl and 2 g/l ^13C-glucose, respectively. […]
(§5) The ^15N/^13C-labeled F0 fragment was analyzed by 3D heteronuclear NMR. in order to assign its Hn, N, Cα, Cβ, and Co chemical shifts, and identify its binding site to HSF2BP. Therefore, 3D NMR HNCA, CBCACONH, HNCACB, HNCANNH, HNCO, and HNCACO experiments were performed on a 700 MHz Bruker AVANCE NEO spectrometer equipped with a triple resonance cryogenic TCI probe at 283 K. The data were processed using Topspin 4.0 (Bruker) and analyzed using CCPNMR 2.4[49]. […] For binding studies, 2D NMR ^1H-^15N HSQC experiments were recorded on a 3-mm-diameter sample tube containing the ^15N-labeled F0 at 100 μM in the absence and presence of the ARM domain at 100 μM, on a 950 MHz Bruker Avance III spectrometer equipped with a triple resonance cryogenic TCI probe at 283 K.

ARM domain of HSF2BP [6] = molecular target: T2, ARM domain of HSF2BP; test: 2D NMR 1H-15N HSQC of 15N-labeled F0 with ARM; format: binding; details: 15N-F0 100 μM, ARM 1:1, 950 MHz, 283 K, pH 7.0; region S2252-Q2342
Description: as §4, §5

GFP-HSF2BP = test: Co-immunoprecipitation of Flag-BRCA2 variants/fragments with GFP-HSF2BP WT; format: cell-based, human; details: transient HEK293T, anti-GFP beads, immunoblot
Text: (§6) Expression constructs for producing point mutation and truncation variants of HS2BP and BRCA2 in human cells were engineered as described before[16] in the PiggyBac vectors by Gibson assembly. For transient expression into HEK293T cells plasmid DNA was transfected using calcium precipitation method or PEI transfection. For stable integration into HeLa cells, PiggyBac expression vectors were co-lipofected together with PiggyBac transposase plasmid (hyPBase[45]) with Lipofectamine 3000 (Thermo Fisher).
(§7) Cells were washed twice in ice-cold PBS and lysed in situ in NETT buffer (100 mM NaCl, 50 mM Tris pH 7.5, 5 mM EDTA pH 8.0, 0.5% Triton-X100) supplemented immediately before use with protease inhibitor cocktail (Roche) and 0.4 mg/ml Pefabloc (Roche) (NETT++); 450 µl NETT++ buffer was used per 145 mm dish ES cells, 1 ml for HeLa and HEK293T. After 5–10 min, cells were scraped off and collected in 1.5 ml microcentrifuge tubes; lysis was continued for additional 20–30 min on ice, then mixtures were centrifuged (15 min, 4 °C, 14,000 × g) and the supernatant (input) was added to washed anti-GFP beads (Chromotek). Beads and lysates were incubated 2–4 h at 4 °C while rotating, washed three times in NETT++ buffer and bound proteins were eluted by boiling in 2x Sample buffer. Immunoblotting was performed following standard procedures with the following antibodies: anti-GFP mAb (Roche, #11814460001), anti-GFP pAb (Abcam #ab290 and Invitrogen #A11122), anti-RAD51[46], anti-BRCA2 mAb Ab1 OP-95 (Millipore #OP95), anti-BRCA2 (Abcam #27976), anti-Flag (M2 antibody, Sigma, F3165 and F1804). For quantitative immunoblotting fluorescently labeled secondary antibodies were used: anti-mouse CF680 (Sigma #SAB460199), anti-rabbit CF770 (Sigma #SAB460215); membranes were scanned using Odyssey CLx imaging system (LI-COR).

[7] = test system: H3 fragment (the ARM domain) of HSF2BP; test: Co-immunoprecipitation of Flag-BRCA2 fragments with GFP-HSF2BP fragment H3; format: cell-based, human; details: Fig. 1c; HEK293T; comparison with F15 and F9; reviewer's reading of the figure
Text: as §6
as §7, with “Beads and lysates were incubated 2–4 h at 4 °C while rotating, washed three times in NETT++ buffer and bound proteins were eluted by boiling in 2x Sample buffer. Immunoblotting was performed following standard procedures with the following antibodies: anti-GFP mAb (Roche, #11814460001), anti-GFP pAb (Abcam #ab290 and Invitrogen #A11122), anti-RAD51[46], anti-BRCA2 mAb Ab1 OP-95 (Millipore #OP95), anti-BRCA2 (Abcam #27976), anti-Flag (M2 antibody, Sigma, F3165 and F1804).” left out

[8] = molecular target: mouse BRCA2-GFP ∆12 (exon 12 deleted) (mouse (endogenous in mES cells)) (UniProt P97929); test: co-IP; anti-GFP nanobody beads on lysates of mES cells with homozygous Brca2-GFP alleles (full, ∆12, ∆12-14); HSF2BP blotted, fluorescent secondary antibodies; NETT buffer
Chain of mouse BRCA2-GFP ∆12 (exon 12 deleted) (mouse (endogenous in mES cells)) (P97929 whole entry, stated change not applied): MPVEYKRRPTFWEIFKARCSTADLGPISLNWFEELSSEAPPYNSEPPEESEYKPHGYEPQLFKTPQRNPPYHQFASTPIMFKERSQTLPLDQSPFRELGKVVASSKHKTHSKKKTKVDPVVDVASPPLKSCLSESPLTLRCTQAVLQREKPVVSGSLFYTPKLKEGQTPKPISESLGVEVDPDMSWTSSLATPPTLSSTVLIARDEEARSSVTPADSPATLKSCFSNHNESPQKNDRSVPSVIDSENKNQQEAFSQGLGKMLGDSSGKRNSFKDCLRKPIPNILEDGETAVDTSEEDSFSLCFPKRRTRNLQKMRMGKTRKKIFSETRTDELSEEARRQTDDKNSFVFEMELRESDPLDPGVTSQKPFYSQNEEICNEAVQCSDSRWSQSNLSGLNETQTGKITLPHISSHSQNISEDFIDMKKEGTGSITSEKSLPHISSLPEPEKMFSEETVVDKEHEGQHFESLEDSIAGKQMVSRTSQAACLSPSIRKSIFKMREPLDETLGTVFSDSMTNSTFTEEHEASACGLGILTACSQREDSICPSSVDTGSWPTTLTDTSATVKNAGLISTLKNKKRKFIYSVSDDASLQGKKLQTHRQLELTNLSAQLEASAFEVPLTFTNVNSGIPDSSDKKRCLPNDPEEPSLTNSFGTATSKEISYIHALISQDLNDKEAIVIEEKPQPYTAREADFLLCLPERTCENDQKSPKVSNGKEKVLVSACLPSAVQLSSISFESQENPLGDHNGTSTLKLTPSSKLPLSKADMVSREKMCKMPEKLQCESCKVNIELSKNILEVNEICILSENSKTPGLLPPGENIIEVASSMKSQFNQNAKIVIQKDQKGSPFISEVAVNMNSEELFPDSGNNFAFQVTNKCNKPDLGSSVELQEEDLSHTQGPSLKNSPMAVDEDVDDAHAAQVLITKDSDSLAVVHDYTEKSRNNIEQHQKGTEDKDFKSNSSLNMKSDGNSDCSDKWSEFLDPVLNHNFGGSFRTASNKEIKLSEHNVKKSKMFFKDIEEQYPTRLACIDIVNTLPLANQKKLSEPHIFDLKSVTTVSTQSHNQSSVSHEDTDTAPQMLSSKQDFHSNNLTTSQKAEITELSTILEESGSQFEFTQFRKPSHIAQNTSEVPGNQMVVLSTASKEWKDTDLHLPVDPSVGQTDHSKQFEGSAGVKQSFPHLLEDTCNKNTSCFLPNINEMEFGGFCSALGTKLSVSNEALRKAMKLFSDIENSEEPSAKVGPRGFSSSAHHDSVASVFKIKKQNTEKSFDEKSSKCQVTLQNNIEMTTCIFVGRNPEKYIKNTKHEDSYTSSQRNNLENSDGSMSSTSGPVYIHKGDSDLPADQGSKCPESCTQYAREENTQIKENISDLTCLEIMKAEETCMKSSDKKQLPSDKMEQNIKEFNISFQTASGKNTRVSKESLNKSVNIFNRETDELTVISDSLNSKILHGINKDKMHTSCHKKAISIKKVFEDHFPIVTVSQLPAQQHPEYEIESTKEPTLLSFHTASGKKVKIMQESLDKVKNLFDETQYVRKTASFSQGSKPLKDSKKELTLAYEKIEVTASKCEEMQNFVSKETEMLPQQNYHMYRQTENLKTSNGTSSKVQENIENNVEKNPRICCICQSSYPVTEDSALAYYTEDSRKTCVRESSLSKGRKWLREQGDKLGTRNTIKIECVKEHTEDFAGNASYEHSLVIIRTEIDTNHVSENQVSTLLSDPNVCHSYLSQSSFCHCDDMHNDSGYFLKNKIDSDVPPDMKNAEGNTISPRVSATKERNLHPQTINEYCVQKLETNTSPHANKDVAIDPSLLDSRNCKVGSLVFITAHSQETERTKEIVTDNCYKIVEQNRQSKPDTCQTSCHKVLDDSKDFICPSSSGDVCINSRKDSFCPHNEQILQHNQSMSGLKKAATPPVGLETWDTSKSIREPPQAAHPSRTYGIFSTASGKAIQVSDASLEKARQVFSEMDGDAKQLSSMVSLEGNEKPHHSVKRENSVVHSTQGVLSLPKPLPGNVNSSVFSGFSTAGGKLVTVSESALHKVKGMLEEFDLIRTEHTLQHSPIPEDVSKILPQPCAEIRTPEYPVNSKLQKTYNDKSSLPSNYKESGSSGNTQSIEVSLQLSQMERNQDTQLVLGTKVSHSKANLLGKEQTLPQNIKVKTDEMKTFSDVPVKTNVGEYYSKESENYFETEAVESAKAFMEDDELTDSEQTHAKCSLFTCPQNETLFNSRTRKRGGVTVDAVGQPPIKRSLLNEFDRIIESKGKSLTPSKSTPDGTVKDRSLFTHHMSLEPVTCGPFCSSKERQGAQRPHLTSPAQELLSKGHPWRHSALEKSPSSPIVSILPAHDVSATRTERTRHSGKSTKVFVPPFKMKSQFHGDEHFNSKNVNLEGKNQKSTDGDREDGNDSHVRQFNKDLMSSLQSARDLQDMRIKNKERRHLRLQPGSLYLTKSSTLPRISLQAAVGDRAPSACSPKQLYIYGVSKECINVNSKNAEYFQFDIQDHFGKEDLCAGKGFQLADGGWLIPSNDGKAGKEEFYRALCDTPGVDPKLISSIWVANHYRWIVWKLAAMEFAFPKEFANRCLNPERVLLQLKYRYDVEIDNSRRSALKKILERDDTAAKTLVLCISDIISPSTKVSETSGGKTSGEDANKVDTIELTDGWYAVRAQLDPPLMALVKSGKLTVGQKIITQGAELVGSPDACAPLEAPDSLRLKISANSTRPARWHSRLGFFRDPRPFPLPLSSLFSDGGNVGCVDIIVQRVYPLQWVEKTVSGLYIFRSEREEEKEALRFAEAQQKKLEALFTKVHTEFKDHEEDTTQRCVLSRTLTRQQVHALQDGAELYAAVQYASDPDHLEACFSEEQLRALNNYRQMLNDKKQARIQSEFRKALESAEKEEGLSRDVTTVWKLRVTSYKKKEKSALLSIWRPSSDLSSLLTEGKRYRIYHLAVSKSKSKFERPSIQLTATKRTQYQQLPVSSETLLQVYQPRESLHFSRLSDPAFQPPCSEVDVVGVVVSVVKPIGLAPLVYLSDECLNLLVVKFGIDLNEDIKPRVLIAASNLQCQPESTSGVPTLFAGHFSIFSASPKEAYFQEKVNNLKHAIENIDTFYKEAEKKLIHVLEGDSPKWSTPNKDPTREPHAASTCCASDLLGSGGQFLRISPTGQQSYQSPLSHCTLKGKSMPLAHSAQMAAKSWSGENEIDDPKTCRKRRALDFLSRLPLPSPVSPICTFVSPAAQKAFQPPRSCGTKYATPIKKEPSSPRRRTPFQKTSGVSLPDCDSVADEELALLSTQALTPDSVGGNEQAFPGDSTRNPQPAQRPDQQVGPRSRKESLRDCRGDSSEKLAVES

mouse BRCA2-∆12 in Hsf2bp^GFP/GFP Brca2^∆12/∆12 mES cells (from UniProt P97929 1-3329) (natural protein)
percent loss of co-precipitation against wild-type BRCA2 [1]: 97 to 99%

B1: armadillo domain of HSF2BP, from aa 122 to aa 334 (ARM) (domain or fragment, human, UniProt O75031 122-334, looked up)
chain: EMGAAACTLLWGVSSSEEVVKAILGGDKALKFFSITGQTMESFVKSLDGDVQELDSDESQFVFALAGIVTNVAAIACGREFLVNSSRVLLDTILQLLGDLKPGQCTKLKVLMLMSLYNVSINLKGLKYISESPGFIPLLWWLLSDPDAEVCLHVLRLVQSVVLEPEVFSKSASEFRSSLPLQRILAMSKSRNPRLQTAAQELLEDLRTLEHNV
notes: Free ARM is a dimer (SEC-MALS); four ARM with two F15X in the complex; A selenomethionine-labelled form was used for the deposited crystal structure; also called HSF2BP ARM; H3 (recombinant); source: E. coli BL21 DE3 Rosetta2, purified (HisTrap, TEV cleavage, SEC)
stoichiometry N [2]: 2
stoichiometry N [3]: 4

B2: F0: Human BRCA2 fragment aa 2213 to aa 2342 including mutation C2332T, recombinant (protein)
chain: STYSKDSENYFETEAVEIAKAFMEDDELTDSKLPSHATHSLFTCPENEEMVLSNSRIGKRRGEPLILVGEPSIKRNLLNEFDRIIENQEKSLKASKSTPDGTIKDRRLFMHHVSLEPITTVPFRTTKERQ
modifications: left off: GB1, C-terminal, cleaved | His6, C-terminal, cleaved
notes: Human BRCA2 fragment aa 2213 to aa 2342 including mutation C2332T, recombinant
binding (HSF2BP mutant R200T): does not bind
ΔG (HSF2BP FL; 293 K, pH 7.5, expt 1): -11.8 kcal/mol
−TΔS (HSF2BP FL; 293 K, pH 7.5, expt 1): -0.8 kcal/mol
ΔH (±error) (HSF2BP FL; 293 K, pH 7.5, expt 1, error in brackets): −11.0 (0.1) kcal/mol
−TΔS (HSF2BP FL; 293 K, pH 7.5, expt 2): -1.0 kcal/mol
ΔH (±error) (HSF2BP FL; 293 K, pH 7.5, expt 2, error in brackets): −10.9 (0.1) kcal/mol
stoichiometry (HSF2BP FL; BRCA2 peptide per HSF2BP): 0.5
affinity ratio HSF2BP vs ARM (HSF2BP FL; HSF2BP binds tighter to F0 than does ARM): about 25 -fold
ΔG (ARM domain of HSF2BP [4]; pH 7.5, expt 1): -10 kcal/mol
−TΔS (ARM domain of HSF2BP [4]; pH 7.5, expt 1): -1.7 kcal/mol
ΔH (±error) (ARM domain of HSF2BP [4]; pH 7.5, expt 1, error in brackets): −8.3 (0.2) kcal/mol
ΔG (ARM domain of HSF2BP [4]; pH 7.5, expt 2): -10.1 kcal/mol
−TΔS (ARM domain of HSF2BP [4]; pH 7.5, expt 2): 1.8 kcal/mol
ΔH (±error) (ARM domain of HSF2BP [4]; pH 7.5, expt 2, error in brackets): −11.9 (0.2) kcal/mol
stoichiometry (ARM domain of HSF2BP [4]; one BRCA2 peptide binds to two ARM): 0.5
transient α-helix population, region N2291-S2303 [5]: about 25%
HSQC peak intensity ratio (with ARM / free) (ARM domain of HSF2BP [6]): lower than 0.4

B3: F16: Flag-tagged BRCA2 fragment 2270-2333 (protein, UniProt P51587 2270-2333, looked up, fragment)
chain: GKRRGEPLILVGEPSIKRNLLNEFDRIIENQEKSLKASKSTPDGTIKDRRLFMHHVSLEPITCV
modifications: Flag tag
interaction with HSF2BP (co-precipitation) (GFP-HSF2BP): reduced efficiency
interaction with H3 (co-precipitation) [7]: same level of interaction

B4: mouse HSF2BP, endogenous in mES cells (natural protein)
chain: MAATVGDGSGTEEACRNMESKEEFVKVRKKDLERLTTEVMQIRDFLPRILNGELLESFQKLKMVEKNLERKEQELEQLIMDREHFKARLETAQADSGREKKEKLALRQQLNEAKQQLLQQAEYCTQMGAVTCTLLWGVSSSEEVVKTILGGDKALKFFNITGQTMESFVKSLDGDVKEVDSDENQFVFALAGIVTNVAAIACGREFLVNSSRVLLDTMLQLLGDLKPGQCTKLKVLMLMSLYNVSINSKGLKYITESPGFIPLLWWLLSDPDAEVCLHTLRLIQSVVLEPDVFSKVASELQSSLPLQRILAMSKSRNSHLQSAAQELLEDLRALDCNV
percent loss of co-precipitation against full-length BRCA2-GFP [8]: 95%
